*1 amine or outer side, *2 acyl side, *3 side chain or, on linkers, in order; H or OH if unused. Side-chain parts run from the residue outwards. The star is where a group is joined. C18 diacid = O=C(O)CCCCCCCCCCCCCCCCC(=O)*; γGlu = O=C(O)[C@H](CCC(=O)[*:2])N[*:1]; Isovaleryl = CC(C)CC(=O)*; Ahx = NCCCCCC(=O)O
T1: human NPY2 receptor (human, UniProt P49146 1-381)
T1 construct: whole, on cells; also called hNPY2-R; hNPY2R
T1 sequence (looked up): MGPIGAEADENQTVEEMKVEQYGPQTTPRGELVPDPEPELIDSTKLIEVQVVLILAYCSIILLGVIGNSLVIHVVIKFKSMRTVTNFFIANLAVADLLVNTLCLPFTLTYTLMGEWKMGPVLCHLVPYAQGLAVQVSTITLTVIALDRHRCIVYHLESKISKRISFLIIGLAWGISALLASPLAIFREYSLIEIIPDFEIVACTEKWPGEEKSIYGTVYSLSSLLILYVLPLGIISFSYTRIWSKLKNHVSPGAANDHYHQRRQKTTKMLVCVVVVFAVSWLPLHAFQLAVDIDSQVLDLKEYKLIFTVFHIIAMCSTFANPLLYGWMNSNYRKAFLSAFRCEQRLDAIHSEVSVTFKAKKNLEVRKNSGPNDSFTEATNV

B1: Compound 44 (peptide)
peptide: Isovaleryl-APEK([Ahx-γGlu-C18 diacid])PEEDATPEELQRYYVGLRHYYNWLTRQRY-NH2
SMILES: CC(C)CC(=O)N[C@@H](C)C(=O)N1CCC[C@H]1C(=O)N[C@@H](CCC(=O)O)C(=O)N[C@@H](CCCCNC(=O)CCCCCNC(=O)CC[C@H](NC(=O)CCCCCCCCCCCCCCCCC(=O)O)C(=O)O)C(=O)N1CCC[C@H]1C(=O)N[C@@H](CCC(=O)O)C(=O)N[C@@H](CCC(=O)O)C(=O)N[C@@H](CC(=O)O)C(=O)N[C@@H](C)C(=O)N[C@H](C(=O)N1CCC[C@H]1C(=O)N[C@@H](CCC(=O)O)C(=O)N[C@@H](CCC(=O)O)C(=O)N[C@@H](CC(C)C)C(=O)N[C@@H](CCC(N)=O)C(=O)N[C@@H](CCCNC(=N)N)C(=O)N[C@@H](Cc1ccc(O)cc1)C(=O)N[C@@H](Cc1ccc(O)cc1)C(=O)N[C@H](C(=O)NCC(=O)N[C@@H](CC(C)C)C(=O)N[C@@H](CCCNC(=N)N)C(=O)N[C@@H](Cc1c[nH]cn1)C(=O)N[C@@H](Cc1ccc(O)cc1)C(=O)N[C@@H](Cc1ccc(O)cc1)C(=O)N[C@@H](CC(N)=O)C(=O)N[C@@H](Cc1c[nH]c2ccccc12)C(=O)N[C@@H](CC(C)C)C(=O)N[C@H](C(=O)N[C@@H](CCCNC(=N)N)C(=O)N[C@@H](CCC(N)=O)C(=O)N[C@@H](CCCNC(=N)N)C(=O)N[C@@H](Cc1ccc(O)cc1)C(N)=O)[C@@H](C)O)C(C)C)[C@@H](C)O
B2: Compound 45 (peptide)
peptide: Isovaleryl-APEK([Ahx-γGlu-C18 diacid])PEEIATPEELQRYYVSLRHYYNWLTRQRY-NH2
SMILES: CC[C@H](C)[C@H](NC(=O)[C@H](CCC(=O)O)NC(=O)[C@H](CCC(=O)O)NC(=O)[C@@H]1CCCN1C(=O)[C@H](CCCCNC(=O)CCCCCNC(=O)CC[C@H](NC(=O)CCCCCCCCCCCCCCCCC(=O)O)C(=O)O)NC(=O)[C@H](CCC(=O)O)NC(=O)[C@@H]1CCCN1C(=O)[C@H](C)NC(=O)CC(C)C)C(=O)N[C@@H](C)C(=O)N[C@H](C(=O)N1CCC[C@H]1C(=O)N[C@@H](CCC(=O)O)C(=O)N[C@@H](CCC(=O)O)C(=O)N[C@@H](CC(C)C)C(=O)N[C@@H](CCC(N)=O)C(=O)N[C@@H](CCCNC(=N)N)C(=O)N[C@@H](Cc1ccc(O)cc1)C(=O)N[C@@H](Cc1ccc(O)cc1)C(=O)N[C@H](C(=O)N[C@@H](CO)C(=O)N[C@@H](CC(C)C)C(=O)N[C@@H](CCCNC(=N)N)C(=O)N[C@@H](Cc1c[nH]cn1)C(=O)N[C@@H](Cc1ccc(O)cc1)C(=O)N[C@@H](Cc1ccc(O)cc1)C(=O)N[C@@H](CC(N)=O)C(=O)N[C@@H](Cc1c[nH]c2ccccc12)C(=O)N[C@@H](CC(C)C)C(=O)N[C@H](C(=O)N[C@@H](CCCNC(=N)N)C(=O)N[C@@H](CCC(N)=O)C(=O)N[C@@H](CCCNC(=N)N)C(=O)N[C@@H](Cc1ccc(O)cc1)C(N)=O)[C@@H](C)O)C(C)C)[C@@H](C)O
B3: Compound 54 (peptide)
peptide: Isovaleryl-APEK([Ahx-γGlu-C18 diacid])PEEDATPEEAQRYYVSLRHYYNWLTRQRY-NH2
SMILES: CC(C)CC(=O)N[C@@H](C)C(=O)N1CCC[C@H]1C(=O)N[C@@H](CCC(=O)O)C(=O)N[C@@H](CCCCNC(=O)CCCCCNC(=O)CC[C@H](NC(=O)CCCCCCCCCCCCCCCCC(=O)O)C(=O)O)C(=O)N1CCC[C@H]1C(=O)N[C@@H](CCC(=O)O)C(=O)N[C@@H](CCC(=O)O)C(=O)N[C@@H](CC(=O)O)C(=O)N[C@@H](C)C(=O)N[C@H](C(=O)N1CCC[C@H]1C(=O)N[C@@H](CCC(=O)O)C(=O)N[C@@H](CCC(=O)O)C(=O)N[C@@H](C)C(=O)N[C@@H](CCC(N)=O)C(=O)N[C@@H](CCCNC(=N)N)C(=O)N[C@@H](Cc1ccc(O)cc1)C(=O)N[C@@H](Cc1ccc(O)cc1)C(=O)N[C@H](C(=O)N[C@@H](CO)C(=O)N[C@@H](CC(C)C)C(=O)N[C@@H](CCCNC(=N)N)C(=O)N[C@@H](Cc1c[nH]cn1)C(=O)N[C@@H](Cc1ccc(O)cc1)C(=O)N[C@@H](Cc1ccc(O)cc1)C(=O)N[C@@H](CC(N)=O)C(=O)N[C@@H](Cc1c[nH]c2ccccc12)C(=O)N[C@@H](CC(C)C)C(=O)N[C@H](C(=O)N[C@@H](CCCNC(=N)N)C(=O)N[C@@H](CCC(N)=O)C(=O)N[C@@H](CCCNC(=N)N)C(=O)N[C@@H](Cc1ccc(O)cc1)C(N)=O)[C@@H](C)O)C(C)C)[C@@H](C)O
B4: Compound 51 (peptide)
peptide: Isovaleryl-APEK([Ahx-γGlu-C18 diacid])PEEDATPEELQRYYVQLRHYYNWLTRQRY-NH2
SMILES: CC(C)CC(=O)N[C@@H](C)C(=O)N1CCC[C@H]1C(=O)N[C@@H](CCC(=O)O)C(=O)N[C@@H](CCCCNC(=O)CCCCCNC(=O)CC[C@H](NC(=O)CCCCCCCCCCCCCCCCC(=O)O)C(=O)O)C(=O)N1CCC[C@H]1C(=O)N[C@@H](CCC(=O)O)C(=O)N[C@@H](CCC(=O)O)C(=O)N[C@@H](CC(=O)O)C(=O)N[C@@H](C)C(=O)N[C@H](C(=O)N1CCC[C@H]1C(=O)N[C@@H](CCC(=O)O)C(=O)N[C@@H](CCC(=O)O)C(=O)N[C@@H](CC(C)C)C(=O)N[C@@H](CCC(N)=O)C(=O)N[C@@H](CCCNC(=N)N)C(=O)N[C@@H](Cc1ccc(O)cc1)C(=O)N[C@@H](Cc1ccc(O)cc1)C(=O)N[C@H](C(=O)N[C@@H](CCC(N)=O)C(=O)N[C@@H](CC(C)C)C(=O)N[C@@H](CCCNC(=N)N)C(=O)N[C@@H](Cc1c[nH]cn1)C(=O)N[C@@H](Cc1ccc(O)cc1)C(=O)N[C@@H](Cc1ccc(O)cc1)C(=O)N[C@@H](CC(N)=O)C(=O)N[C@@H](Cc1c[nH]c2ccccc12)C(=O)N[C@@H](CC(C)C)C(=O)N[C@H](C(=O)N[C@@H](CCCNC(=N)N)C(=O)N[C@@H](CCC(N)=O)C(=O)N[C@@H](CCCNC(=N)N)C(=O)N[C@@H](Cc1ccc(O)cc1)C(N)=O)[C@@H](C)O)C(C)C)[C@@H](C)O
B5: Compound 49 (peptide)
peptide: Isovaleryl-APEK([Ahx-γGlu-C18 diacid])PEEDATPEELQRYYVLLRHYYNWLTRQRY-NH2
SMILES: CC(C)CC(=O)N[C@@H](C)C(=O)N1CCC[C@H]1C(=O)N[C@@H](CCC(=O)O)C(=O)N[C@@H](CCCCNC(=O)CCCCCNC(=O)CC[C@H](NC(=O)CCCCCCCCCCCCCCCCC(=O)O)C(=O)O)C(=O)N1CCC[C@H]1C(=O)N[C@@H](CCC(=O)O)C(=O)N[C@@H](CCC(=O)O)C(=O)N[C@@H](CC(=O)O)C(=O)N[C@@H](C)C(=O)N[C@H](C(=O)N1CCC[C@H]1C(=O)N[C@@H](CCC(=O)O)C(=O)N[C@@H](CCC(=O)O)C(=O)N[C@@H](CC(C)C)C(=O)N[C@@H](CCC(N)=O)C(=O)N[C@@H](CCCNC(=N)N)C(=O)N[C@@H](Cc1ccc(O)cc1)C(=O)N[C@@H](Cc1ccc(O)cc1)C(=O)N[C@H](C(=O)N[C@@H](CC(C)C)C(=O)N[C@@H](CC(C)C)C(=O)N[C@@H](CCCNC(=N)N)C(=O)N[C@@H](Cc1c[nH]cn1)C(=O)N[C@@H](Cc1ccc(O)cc1)C(=O)N[C@@H](Cc1ccc(O)cc1)C(=O)N[C@@H](CC(N)=O)C(=O)N[C@@H](Cc1c[nH]c2ccccc12)C(=O)N[C@@H](CC(C)C)C(=O)N[C@H](C(=O)N[C@@H](CCCNC(=N)N)C(=O)N[C@@H](CCC(N)=O)C(=O)N[C@@H](CCCNC(=N)N)C(=O)N[C@@H](Cc1ccc(O)cc1)C(N)=O)[C@@H](C)O)C(C)C)[C@@H](C)O
B6: Compound 48 (peptide)
peptide: Isovaleryl-APAK([Ahx-γGlu-C18 diacid])PEEAATPEELQRYYISLRHYYNWLTRQRY-NH2
SMILES: CC[C@H](C)[C@H](NC(=O)[C@H](Cc1ccc(O)cc1)NC(=O)[C@H](Cc1ccc(O)cc1)NC(=O)[C@H](CCCNC(=N)N)NC(=O)[C@H](CCC(N)=O)NC(=O)[C@H](CC(C)C)NC(=O)[C@H](CCC(=O)O)NC(=O)[C@H](CCC(=O)O)NC(=O)[C@@H]1CCCN1C(=O)[C@@H](NC(=O)[C@H](C)NC(=O)[C@H](C)NC(=O)[C@H](CCC(=O)O)NC(=O)[C@H](CCC(=O)O)NC(=O)[C@@H]1CCCN1C(=O)[C@H](CCCCNC(=O)CCCCCNC(=O)CC[C@H](NC(=O)CCCCCCCCCCCCCCCCC(=O)O)C(=O)O)NC(=O)[C@H](C)NC(=O)[C@@H]1CCCN1C(=O)[C@H](C)NC(=O)CC(C)C)[C@@H](C)O)C(=O)N[C@@H](CO)C(=O)N[C@@H](CC(C)C)C(=O)N[C@@H](CCCNC(=N)N)C(=O)N[C@@H](Cc1c[nH]cn1)C(=O)N[C@@H](Cc1ccc(O)cc1)C(=O)N[C@@H](Cc1ccc(O)cc1)C(=O)N[C@@H](CC(N)=O)C(=O)N[C@@H](Cc1c[nH]c2ccccc12)C(=O)N[C@@H](CC(C)C)C(=O)N[C@H](C(=O)N[C@@H](CCCNC(=N)N)C(=O)N[C@@H](CCC(N)=O)C(=O)N[C@@H](CCCNC(=N)N)C(=O)N[C@@H](Cc1ccc(O)cc1)C(N)=O)[C@@H](C)O

Target: T1, human NPY2 receptor
Experiment: RLB: displacement of 125I-PYY(1-36) from hNPY2R membranes

Row | Binder | Ki [nM]
1 | B1 | 5.86
2 | B2 | 6.17
3 | B3 | 8.97
4 | B4 | 2.59
5 | B5 | 11.6
6 | B6 | 1.54
